Target: T1, γc on human cell lines (Ramos, HH, U937) (human, UniProt P31785 23-369)
T1 sequence (looked up): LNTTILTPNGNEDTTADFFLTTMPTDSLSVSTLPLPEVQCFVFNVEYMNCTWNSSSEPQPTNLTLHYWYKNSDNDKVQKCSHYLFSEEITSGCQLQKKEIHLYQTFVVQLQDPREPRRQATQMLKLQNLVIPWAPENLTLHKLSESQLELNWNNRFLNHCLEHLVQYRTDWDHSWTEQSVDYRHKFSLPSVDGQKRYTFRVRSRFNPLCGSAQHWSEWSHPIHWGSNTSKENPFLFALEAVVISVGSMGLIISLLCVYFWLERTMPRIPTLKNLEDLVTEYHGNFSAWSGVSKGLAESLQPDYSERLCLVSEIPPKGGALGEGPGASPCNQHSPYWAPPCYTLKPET
Test: cell-based or functional assay

B1: super-4 (IL-4 RGA), free, not bound to IL-4Rα (ligand)
chain: HKCDITLQEIIKTLNSLTEQKTLCTELTVTDIFAASKNTTEKETFCRAATVLRQFYSHHEKDTRCLGATAQQFHRHKQLIRFLKRLDRNLWGLAGLNSCPVKEANQSTLENFLERLRVIMQSKWFKCGAHHHHHH
- STAT6 phosphorylation in Ramos cells, potency against IL-4: ~3 fold
- STAT6 phosphorylation in Ramos cells, potency against KFR: ~10 fold
